This is an account of results in IntAct's records for PubMed 24485456.

The labels stand for the following.
B1: Synaptogenesis protein syg-2 (Caenorhabditis elegans), Q9U3P2 (parent)
chain: MLSQAILLWLFGSIHISSQFFLESPSNLSTIAGESITFRCSAEKSPEPIVYSQWKSNTGSLLGYHQEGILPGHQGRFSYIKQNAEELHLKITHVNLDDDGEYECQMLHPEEGPIRAKSFLNIIVPPQLVYFSNYQPNSIIAVKENTPLNITCVVPNVKPEPEVLWYMDGKVMSRDVKQASTPHLNKTFTVYTSLVVQSDRNDHGKVITCEAFQKETDIRITTNTTLDVLFPPSDPTVEILRNPSALRSGDNVTIACSVTGGNPPPDVFWYHENKRLQSHSTLDTRSKEIKNIYSFIASQNDNMAEYECRANNSRTGNPKRKAMKLEVNYPPASVELFGESNIRYGSSANIQCKSLPSNPASQITWIINGRSVPTPTQREFVVENGIVSSSNVSVHSNELSVEAHQINVECMATNPEGSSAKQHVIKIIAPPKAPIITGLEDRKFFEGDIVNVTCEAQGGNPLAELSWYRGSEKHLVKGRKKMKWSQVKKKLVMSLLCLCEVVIMNFFRFSKNVFYFFRFTLFIECGVNGAHNEVAGFSSYSTLALRVDRTMNTQRLKCEATNAALDEPLIESQYLSVYYPPRRVLIRPADSGDQRLLVGKSARLVCGTLSSNPAAHISWQFSRATDDNKVHLGDVSLNETTRDNGFNVENVLSFTPTEEYDGTVVHCIANHPEWKHSVNTSFPLNVMYPPKMLVNDPVTVVMSEGDSFKENLTVRGNPAISLWQWRKNGVPFDHTIGRVFARGAVLSGKQLLSTDAGVYTLTATNSVGSTNITIKLAVEYSARITSISTPVIAATGDTVLLECEADGEPSKANMIHWYKNGEILAAQHRGHKKAILRLNATEQQSGEYTCKADNGIGVPAEGQTFLLVNSAPRVLPVARYAKTAGILGGVAKARCKVYAVPTVEFVWEKDEQLIKKNSSKYSIVNTQIDYSTYESTLWIKNIVPDDYTKKVKCIARNSFGTDHLSIPIIPPTHPDEPFNLTMTNSTLNTISVAWEPRFDGGSDQIFEVKYRRQNDDLIHLVNTTHTNLRLSGLATANTYFFQIRSINARGFASSWTSPVIFATLNEDGVNVAMIRNEKLKLTTWIPYILIFIVLFMLLNVVICCFVCNRTKKRKLREKTEMARTAINGGDVRQVQMYGTMMGNDGMSRRDIDDRPEMSEDEHSVRTMIEVSPNGYMQPIEPMLYESTGLLEYDYQTRSYMGSSQGTRSMTYANVPYPEPPQPSYHSNWNSLQRQSNNNTSPQHHLSTFINPNMGVRAGPINYAQLDGDLV
partner: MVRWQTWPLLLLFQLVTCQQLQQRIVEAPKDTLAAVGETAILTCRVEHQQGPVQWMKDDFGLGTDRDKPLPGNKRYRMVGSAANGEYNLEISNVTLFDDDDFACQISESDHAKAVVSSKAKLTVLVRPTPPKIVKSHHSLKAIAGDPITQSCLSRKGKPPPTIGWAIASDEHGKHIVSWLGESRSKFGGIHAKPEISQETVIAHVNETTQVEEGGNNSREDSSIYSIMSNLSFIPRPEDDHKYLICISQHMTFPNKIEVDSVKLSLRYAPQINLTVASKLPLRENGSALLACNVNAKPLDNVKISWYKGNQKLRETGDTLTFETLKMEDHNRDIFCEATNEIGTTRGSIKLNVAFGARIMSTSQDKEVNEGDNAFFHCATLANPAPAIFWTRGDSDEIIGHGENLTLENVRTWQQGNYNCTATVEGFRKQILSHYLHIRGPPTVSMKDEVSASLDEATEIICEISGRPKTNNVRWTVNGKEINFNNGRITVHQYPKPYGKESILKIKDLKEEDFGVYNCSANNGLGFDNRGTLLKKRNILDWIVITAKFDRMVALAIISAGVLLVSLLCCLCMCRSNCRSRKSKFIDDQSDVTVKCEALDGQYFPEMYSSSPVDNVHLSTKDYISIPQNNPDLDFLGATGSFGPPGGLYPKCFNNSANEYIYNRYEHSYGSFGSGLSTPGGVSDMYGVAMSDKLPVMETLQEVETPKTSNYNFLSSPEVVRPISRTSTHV
B2: Synaptogenesis protein syg-1 (Caenorhabditis elegans), B1Q236 (parent)
chain: B1 partner
partner: B1 chain

Variants of B1 are the subject of one assay. The note with it: with syg1_caeel syg-1, B1Q236.
In the case of L61A, the “effect of a mutation on the interaction” value is reported as “decreasing interaction strength”.
On the same count and under the same terms, next, Q105A: “disrupting interaction strength”; Q53A: “decreasing interaction strength”; R115A: “decreasing interaction strength”.

In another assay the parent is B2. The following applies: with syg2_caeel syg-2, Q9U3P2.
In the case of Q54A;M56A;F60A;S107A, the “effect of a mutation on the interaction” value was “disrupting interaction strength”.
Regarding Q54A;F60A, the “effect of a mutation on the interaction” value is “disrupting interaction strength”.
As for Q54A, the “effect of a mutation on the interaction” value is “decreasing interaction strength”.
For F60A, the “effect of a mutation on the interaction” value was “disrupting interaction strength”.
On the same count and under the same terms, next, Q105A: “decreasing interaction strength”.
